Experiment [1] has as its target tethered gp140 89.6 (HIV-1 isolate 89.6) (UniProt Q73372). Put plainly: competition ELISA; competitor (coated): Fab m48; biotinylated gp140 89.6; competing antibody at 12 µg/ml.
The target is the same in experiment [2]. Put plainly: competition ELISA; competitor (coated): Fab m47; biotinylated gp140 89.6; competing antibody at 12 µg/ml. For orientation: ELISA stands for enzyme-linked immunosorbent assay.
Experiment [3] has the same target. Kind of experiment: competition ELISA; competitor (coated): Fab m45; biotinylated gp140 89.6; competing antibody at 12 µg/ml.
For experiment [4] the target is unchanged. Put plainly: competition ELISA; competitor (coated): Fab m44; biotinylated gp140 89.6; competing antibody at 12 µg/ml.
The target is the same in experiment [5]. Put plainly: competition ELISA; competitor (coated): Fab m43; biotinylated gp140 89.6; competing antibody at 12 µg/ml.

In the case of Fab Z13, the Inhibition, % in experiment [1] came out at 87%; in experiment [2] it was 41%; in experiment [3], 0%; in experiment [4], 57%; in experiment [5], 72%.
The matching figures for IgG 2F5 (antibody): 74%, 31%, 0%, 38% and 51%.
Taken in the same sequence, the figures for IgG 4E10 (antibody) were 63%, 10%, 6%, 42% and 29%.

The values are drawn from patent publication US20070292390A1.
